Laboratory results published in US10919953 (dated 2021).
Where two headings read alike, the source gives them in different places.

T1: FcgRIa (human, UniProt P12314)
T1 chain: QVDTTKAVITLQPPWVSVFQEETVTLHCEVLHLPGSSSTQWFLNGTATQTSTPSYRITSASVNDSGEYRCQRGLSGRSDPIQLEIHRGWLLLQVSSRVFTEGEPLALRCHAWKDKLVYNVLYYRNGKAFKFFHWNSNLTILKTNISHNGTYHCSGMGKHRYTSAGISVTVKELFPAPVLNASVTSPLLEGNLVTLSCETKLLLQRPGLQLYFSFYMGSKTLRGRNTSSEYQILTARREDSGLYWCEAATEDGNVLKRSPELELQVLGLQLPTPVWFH


How the values were obtained:
FcgRIa [1] = target: T1, FcgRIa; assay: SPR
FcgRIa [2] = target: T1, FcgRIa; assay: SPR

| Kd (FcgRIa [1]) | Kd (FcgRIa [2]) | Binder |
| --- | --- | --- |
| 70 nM |  | IL6R-BP233/IL6R-L (antibody) chain 1: QVQLQESGPGLVKPSETLSLTCAVSGHSISHDHAWSWVRQPPGEGLEWIGFISYSGITNYNPSLQGRVTISRDNSKNTLYLQMNSLRAEDTAVYYCARSLARTTAMDYWGEGTLVTVSSASTKGPSVFPLAPSSKSTSGGTAALGCLVKDYFPEPVTVSWNSGALTSGVHTFPAVLQSSGLYSLSSVVTVPSSSLGTQTYICNVNHKPSNTKVDKKVEPKSCDKTHTCPPCPAPEYLGDDSVFLFPPKPKDTLMISRTPEVTCVVVDVSHEDGEVKFNWYVDGVEVHNAKTKPREEQYNSTYRVVSVLTVLHQDWLNGKEYKCKVSNKALPKPIEKTISKAKGQPREPQVYTLPPSRDELTKNQVSLTCLVKGFYPSDIAVEWESNGQPENNYKTTPPVLDSDGSFFLYSKLTVDKSRWQQGNVFSCSVMHEALHNHYTQESLSLSP chain 2: not shown |
| 8 nM |  | IL6R-BP246/IL6R-L (antibody) chain 1: QVQLQESGPGLVKPSETLSLTCAVSGHSISHDHAWSWVRQPPGEGLEWIGFISYSGITNYNPSLQGRVTISRDNSKNTLYLQMNSLRAEDTAVYYCARSLARTTAMDYWGEGTLVTVSSASTKGPSVFPLAPSSKSTSGGTAALGCLVKDYFPEPVTVSWNSGALTSGVHTFPAVLQSSGLYSLSSVVTVPSSSLGTQTYICNVNHKPSNTKVDKKVEPKSCDKTHTCPPCPAPDLLGDDSVFLFPPKPKDTLMISRTPEVTCVVVDVQDEDGEVKFNWYVDGVEVHNAKTKPREEQDNSTYRVVSVLTVLHQDWLNGKEYKCKVSNAALPRPIEKTISKAKGQPREPQVYTLPPSRDELTKNQVSLTCLVKGFYPSDIAVEWESNGQPENNYKTTPPVLDSDGSFFLYSKLTVDKSRWQQGNVFSCSVMHEALHNHYTQESLSLSP chain 2: not shown |
| 3 nM |  | IL6R-BP243/IL6R-L (antibody) chain 1: QVQLQESGPGLVKPSETLSLTCAVSGHSISHDHAWSWVRQPPGEGLEWIGFISYSGITNYNPSLQGRVTISRDNSKNTLYLQMNSLRAEDTAVYYCARSLARTTAMDYWGEGTLVTVSSASTKGPSVFPLAPSSKSTSGGTAALGCLVKDYFPEPVTVSWNSGALTSGVHTFPAVLQSSGLYSLSSVVTVPSSSLGTQTYICNVNHKPSNTKVDKKVEPKSCDKTHTCPPCPAPDYLGDDSVFLFPPKPKDTLMISRTPEVTCVVVDVSDEDGEVKFNWYVDGVEVHNAKTKPREEQYNSTYRVVSVLTVLHQDWLNGKEYKCKVSNKALPRPIEKTISKAKGQPREPQVYTLPPSRDELTKNQVSLTCLVKGFYPSDIAVEWESNGQPENNYKTTPPVLDSDGSFFLYSKLTVDKSRWQQGNVFSCSVMHEALHNHYTQESLSLSP chain 2: not shown |
|  | 4 nM | IL6R-BP267/IL6R-L (antibody) chain 1: QVQLQESGPGLVKPSETLSLTCAVSGHSISHDHAWSWVRQPPGEGLEWIGFISYSGITNYNPSLQGRVTISRDNSKNTLYLQMNSLRAEDTAVYYCARSLARTTAMDYWGEGTLVTVSSASTKGPSVFPLAPSSKSTSGGTAALGCLVKDYFPEPVTVSWNSGALTSGVHTFPAVLQSSGLYSLSSVVTVPSSSLGTQTYICNVNHKPSNTKVDKKVEPKSCDKTHTCPPCPAPDLLGDDSVFLFPPKPKDTLMISRTPEVTCVVVDVSEEDGEVKFNWYVDGVEVHNAKTKPREEQYNSTYRVVSVLTVLHQDWLNGKEYKCKVSNKALPAPIEKTISKAKGQPREPQVYTLPPSRDELTKNQVSLTCLVKGFYPSDIAVEWESNGQPENNYKTTPPVLDSDGSFFLYSKLTVDKSRWQQGNVFSCSVMHEALHNHYTQESLSLSP chain 2: not shown |
